From patent publication US20040121362A1 come the findings set out here.

Test [1] has as its target Flag-RAI-3 recombinant protein expressed in the stable Flag-RAI-3 CHO cell line (CHO/NFAT G alpha 15), clone B8 (human) (UniProt Q8NFJ5). In words: FACS, gating 100%; parental CHO mean signal 4.82. A general note: Flow cytometry measures light scatter and fluorescence of single cells or particles in a stream.
Test [2] shares this target. Kind of test: FACS, clone B8 against parental CHO.

UniProt Q8NFJ5, sequence (Q8NFJ5 other isoform, or with tags, fused parts or gaps): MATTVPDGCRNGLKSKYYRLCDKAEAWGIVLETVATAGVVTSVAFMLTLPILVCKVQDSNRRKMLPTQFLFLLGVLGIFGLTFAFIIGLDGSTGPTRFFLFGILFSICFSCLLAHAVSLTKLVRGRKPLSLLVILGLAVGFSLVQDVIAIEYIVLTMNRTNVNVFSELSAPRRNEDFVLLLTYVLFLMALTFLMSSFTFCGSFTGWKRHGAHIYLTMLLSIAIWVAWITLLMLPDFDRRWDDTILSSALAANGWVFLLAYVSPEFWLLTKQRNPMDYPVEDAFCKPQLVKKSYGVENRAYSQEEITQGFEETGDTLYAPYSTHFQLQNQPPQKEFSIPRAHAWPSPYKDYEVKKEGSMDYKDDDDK

Take “Anti-FLAG FITC (Sigma, Catalog #F4049) (antibody)”: the mean signal in test [1] worked out at 35. For the same substance, the fold over background in test [2] was 7 fold.
